Experimental data published in US12692310B2, “ASIC1 channel antagonist antibody” (ShanghaiTech University, priority 2019, dated 2026).
Numbering of substitutions follows the chain as printed.

Tests used:
mASIC1a-eYFP = biological target: T1, mASIC1a-eYFP (Mus musculus, UniProt Q6NXK8); assay: Species/subtype selectivity, FACS binding and ICC, transfected CHO-K1 cells; assay type: cell-based
T1 construct: expressed in transfected cells; host or cells: CHO-K1, transient
T1 sequence (Q6NXK8 1-526): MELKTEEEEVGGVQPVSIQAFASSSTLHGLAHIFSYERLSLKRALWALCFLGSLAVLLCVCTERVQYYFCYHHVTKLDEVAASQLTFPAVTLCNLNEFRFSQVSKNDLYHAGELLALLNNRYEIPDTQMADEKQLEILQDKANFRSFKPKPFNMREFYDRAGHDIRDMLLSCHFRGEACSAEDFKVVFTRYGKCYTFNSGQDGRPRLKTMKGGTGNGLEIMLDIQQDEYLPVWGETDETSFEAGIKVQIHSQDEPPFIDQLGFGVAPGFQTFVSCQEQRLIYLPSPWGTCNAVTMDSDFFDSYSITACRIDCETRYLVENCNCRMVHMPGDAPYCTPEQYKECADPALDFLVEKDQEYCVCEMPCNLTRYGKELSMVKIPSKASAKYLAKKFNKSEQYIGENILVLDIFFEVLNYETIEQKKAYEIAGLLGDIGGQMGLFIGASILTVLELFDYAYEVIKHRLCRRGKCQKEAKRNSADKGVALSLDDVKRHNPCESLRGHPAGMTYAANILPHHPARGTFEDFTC
Protocol: (§1) Cell Membrane Colocalization Studies Using Immunocytochemistry (ICC). Cells (CHO-K1) were seeded onto the poly-D-lysine-coated glass bottom 24-well plates at a concentration of 2×10^5 cells per mL. After 12 h of cultivation, the CHO-K1 cells were transfected with ASIC plasmids by Lipofectin 3000 reagent. Twenty-four hours after transfection, the cells were fixed in 4% paraformaldehyde and incubated for 30 min in a blocking solution (5% goat serum in PBS). The resulting cells were incubated with […] ASC06-IgG1 at 4° C. overnight followed by three PBS washes for 5 min each and incubation with the Alexa555-conjugated goat anti-human secondary antibody (Life Technology). After three additional PBS washes for 5 min each, the nuclei of the cells were stained with DAPI (#10236276001; Roche). The ICC analysis was performed on a laser scanning confocal microscopy (ZEISS LSM710) with a 63×N.A. 1.4 objective at 25° C. Images were collected on a 1,024×1,024-pixel EM-CCD camera. Data acquisition and analyses were performed with the ZEN 2012 professional software.
(§2) To test the species and subtype selectivity of ASC06-IgG1, vectors encoding human ASIC1b-eYFP fusion, rat ASIC1a-eYFP fusion, mouse ASIC1a-eYFP fusion, hASIC2a-eYFP fusion, hASIC2b-eYFP fusion, and hASIC3a-eYFP fusion were constructed. The CHO-K1 cells were transiently transfected with these plasmids. FACS binding assay and immunocytochemistry (ICC) were carried out to determine if ASC06-IgG1 is able to bind to the cell surface-expressed ASIC homologs and isotypes.

rASIC1a-eYFP = biological target: T2, rASIC1a-eYFP (Rattus norvegicus, UniProt P55926); assay: as above; assay type: cell-based
T2 construct: expressed in transfected cells; host or cells: CHO-K1, transient
T2 sequence (P55926 1-526): T1 sequence (Q6NXK8 1-526) with N476S
Protocol: as §1, §2

B1: ASC06-IgG1: ASC06 antibody converted into a full length IgG1 form (antibody, V domains shown)
VH: QVQLQQSGGGLVQPGGSLRLSCAASGFTFSSYAMSWVRQAPGKGLEWVSAISGSGGSTYYADSVKGRFTISRDNSKNTLYLQMNSLRAEDTAVYYCAKDSFYGYSKGDWGQGTLVTVSS
VL: QSALTQPASVSGSPGQSITISCTGTSSDVGAYNYVSWYQQQPGKAPKLMIYGVSNRPSGVSNRFSGSKSGNAASLTISGLQAEDEADYYCSSYTSSSTYVFGTGTKLTVLG
FACS recognition of mouse ASIC1a (mASIC1a-eYFP; FACS): recognized | ICC membrane co-localization with mASIC1a-eYFP (mASIC1a-eYFP; ICC staining): membrane co-localization | FACS recognition of rat ASIC1a (rASIC1a-eYFP; FACS): recognized | ICC membrane co-localization with rASIC1a-eYFP (rASIC1a-eYFP; ICC staining): membrane co-localization
